Data published in publication PMC7343240.

Assays:
[1] = target: IGF-1Rzip (leucine-zipper-stabilized human IGF-1R ectodomain) (human | Saccharomyces cerevisiae); assay: europium time-resolved fluorescence competition binding assay (immunocapture); IGF-1Rzip (0.5 μg per well) captured on a plate coated with 24-31 anti-human IGF-1R antibody; Eu-IGF-I or Eu-IGF-II (~100,000 counts) with increasing concentrations of unlabelled IGF-I or IGF-II; 16 h at 4°C; one-site fit
[2] = target: IGF-1Rzip (leucine-zipper-stabilized human IGF-1R ectodomain) (human | Saccharomyces cerevisiae); assay: cryo-EM structure; IGF-1Rzip mixed with IGF-II at a molar ratio of 1 to 1.5 (receptor homodimer to ligand) in TBSA (24.8 mM Tris-HCl pH 8.0, 137 mM NaCl, 2.7 mM KCl, 0.02% azide); single-particle reconstruction; open-leg and closed-leg 3D classes
[3] = target: holoIGF-1R (IGF-1R holoreceptor solubilized from P6 cells) (human) (UniProt P08069); assay: europium time-resolved fluorescence competition binding assay (immunocapture); IGF-1R solubilized from P6 cells (100 μl lysate per well) captured on a plate coated with 24-31 anti-human IGF-1R antibody; Eu-IGF-I or Eu-IGF-II (~100,000 counts) with increasing concentrations of unlabelled IGF-I or IGF-II; 16 h at 4°C; one-site fit

Row | Substance | IC50 [1] | stoichiometry N (IGF-II per receptor homodimer) [2] | IC50 [3]
1 | human insulin-like growth factor I (IGF-I) (from UniProt P05019 49-118) (ligand) | 0.39 nM | – | –
2 | "Receptor grade" IGF-II (GroPep) (ligand) | – | 1 | –
3 | human insulin-like growth factor II (IGF-II), of Francis et al., 1993 (ligand) | 1.24 nM | – | 0.85 nM
